This is an account of results in article PMC10117100.

Experiment [1] concerns the target Gluc1-ΔN(1 to 433) (human). Description: split reporter (BiFC, NanoBiT); Gaussia princeps protein complementation assay (GPCA): Gluc1 and Gluc2 N-terminal fusions co-transfected in HEK293T, luminescence of lysates after 48 h as normalized luminescence ratio (NLR); pairs count as interacting if NLR is above 5.
Experiment [2] concerns the target Gluc1-ΔNp73α FL (human) (UniProt O15350). The description is as above.

Where only a bound is given, the exact number is not on record here.

Gluc1-ΔNp73α FL (human), sequence (O15350 other isoform, or with tags, fused parts or gaps mutant): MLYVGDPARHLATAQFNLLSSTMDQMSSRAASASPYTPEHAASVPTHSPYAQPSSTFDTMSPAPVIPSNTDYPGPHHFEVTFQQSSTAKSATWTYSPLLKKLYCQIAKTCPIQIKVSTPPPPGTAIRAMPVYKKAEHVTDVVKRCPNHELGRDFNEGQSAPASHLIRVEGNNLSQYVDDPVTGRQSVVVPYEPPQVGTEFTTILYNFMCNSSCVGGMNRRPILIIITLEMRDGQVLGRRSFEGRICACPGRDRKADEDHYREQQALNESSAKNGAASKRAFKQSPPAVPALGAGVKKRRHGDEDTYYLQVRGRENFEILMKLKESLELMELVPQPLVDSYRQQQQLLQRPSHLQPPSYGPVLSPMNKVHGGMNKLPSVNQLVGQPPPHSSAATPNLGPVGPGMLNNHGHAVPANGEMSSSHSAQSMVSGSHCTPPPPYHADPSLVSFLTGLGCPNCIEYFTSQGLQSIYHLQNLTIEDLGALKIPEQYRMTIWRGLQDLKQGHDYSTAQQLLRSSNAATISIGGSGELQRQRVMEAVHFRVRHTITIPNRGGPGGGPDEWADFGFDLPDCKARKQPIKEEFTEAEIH
Gluc2-E2F(1 to 336), sequence (Q16254 1-336): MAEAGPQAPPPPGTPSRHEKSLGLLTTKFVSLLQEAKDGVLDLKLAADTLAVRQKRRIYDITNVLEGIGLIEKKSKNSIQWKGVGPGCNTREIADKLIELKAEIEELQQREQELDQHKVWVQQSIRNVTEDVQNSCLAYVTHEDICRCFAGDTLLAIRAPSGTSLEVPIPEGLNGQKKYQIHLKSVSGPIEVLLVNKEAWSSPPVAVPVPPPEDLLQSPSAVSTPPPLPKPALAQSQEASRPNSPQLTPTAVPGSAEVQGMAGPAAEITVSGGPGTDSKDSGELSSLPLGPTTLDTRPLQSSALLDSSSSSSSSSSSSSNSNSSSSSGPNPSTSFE
Gluc2-E2F4 FL, sequence (Q16254 whole entry): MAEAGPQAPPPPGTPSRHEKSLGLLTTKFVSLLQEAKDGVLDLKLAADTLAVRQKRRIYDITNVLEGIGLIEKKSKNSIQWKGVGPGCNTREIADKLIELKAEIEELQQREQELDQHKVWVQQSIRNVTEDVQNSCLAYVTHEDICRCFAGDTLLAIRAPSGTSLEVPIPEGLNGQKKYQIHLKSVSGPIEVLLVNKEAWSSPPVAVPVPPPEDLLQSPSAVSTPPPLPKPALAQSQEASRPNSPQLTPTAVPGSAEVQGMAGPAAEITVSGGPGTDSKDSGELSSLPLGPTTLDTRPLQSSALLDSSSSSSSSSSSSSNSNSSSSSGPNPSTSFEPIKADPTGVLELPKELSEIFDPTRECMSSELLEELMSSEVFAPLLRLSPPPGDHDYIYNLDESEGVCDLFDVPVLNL
Gluc1-ΔN(1 to 433) (human), sequence (O15350 other isoform, or with tags, fused parts or gaps mutant): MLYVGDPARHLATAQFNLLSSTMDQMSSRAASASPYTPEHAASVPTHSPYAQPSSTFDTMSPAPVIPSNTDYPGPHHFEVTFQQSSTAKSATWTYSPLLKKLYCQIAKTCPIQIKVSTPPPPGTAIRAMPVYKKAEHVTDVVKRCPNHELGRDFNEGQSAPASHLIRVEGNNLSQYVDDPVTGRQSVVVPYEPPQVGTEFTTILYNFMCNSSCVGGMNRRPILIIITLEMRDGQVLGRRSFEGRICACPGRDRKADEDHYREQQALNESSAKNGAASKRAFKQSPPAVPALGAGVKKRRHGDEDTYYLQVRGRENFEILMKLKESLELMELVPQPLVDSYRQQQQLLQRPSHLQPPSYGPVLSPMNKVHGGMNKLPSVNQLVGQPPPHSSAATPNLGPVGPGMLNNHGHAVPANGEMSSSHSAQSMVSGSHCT

Take “Gluc2-E2F4 FL (from UniProt Q16254 1-413) (natural protein)”: the normalized luminescence ratio (NLR) in experiment [1] is over 20.
Turning to “Gluc2-E2F(1 to 336) (from UniProt Q16254 1-336) (domain or fragment)”, the NLR normalized to the ΔNp73α-E2F4 FL interaction in experiment [2] was 60%.
